Measured values as given in PMC2788523, “Overexpression and characterization of medium-chain-length polyhydroxyalkanoate granule bound polymerases from Pseudomonas putida GPo1” (Microbial Cell Factories, 2009).

Substrate: CCCCC[C@@H](O)CC(=O)SCCNC(=O)CCNC(=O)[C@H](O)C(C)(C)COP(=O)(O)OP(=O)(O)OC[C@H]1O[C@@H](n2cnc3c(N)ncnc32)[C@H](O)[C@@H]1OP(=O)(O)O
Assay: cells, lysate or membranes
Assay type: biochemical, Ectopseudomonas oleovorans
Conditions: granule-bound enzyme (isolated PHA granules), 100 mM Tris-HCl pH 8, 1 mg/ml BSA, 0.5 mM MgCl2, substrate 0.0375-0.25 mM

Protein | Km [µM]
PhaC1 (PHA polymerase 1), granule-bound (Ectopseudomonas oleovorans) (protein, overexpressed from pGEc405 in PHA-negative P. putida GPp104; assayed on isolated PHA granules (other granule proteins present)) MSNKNNDELQRQASENTLGLNPVIGIRRKDLLSSARTVLRQAVRQPLHSAKHVAHFGLELKNVLLGKSSLAPESDDRRFNDPAWSNNPLYRRYLQTYLAWRKELQDWIGNSDLSPQDISRGQFVINLMTEAMAPTNTLSNPAAVKRFFETGGKSLLDGLSNLAKDLVNNGGMPSQVNMDAFEVGKNLGTSEGAVVYRNDVLELIQYKPITEQVHARPLLVVPPQINKFYVFDLSPEKSLARYCLRSQQQTFIISWRNPTKAQREWGLSTYIDALKEAVDAVLAITGSKDLNMLGACSGGITCTALVGHYAALGENKVNALTLLVSVLDTTMDNQVALFVDEQTLEAAKRHSYQAGVLEGSEMAKVFAWMRPNDLIWNYWVNNYLLGNEPPVFDILFWNNDTTRLPAAFHGDLIEMFKSNPLTRPDALEVCGTPIDLKQVKCDIYSLAGTNDHITPWQSCYRSAHLFGGKIEFVLSNSGHIQSILNPPGNPKARFMTGADRPGDPVAWQENATKHADSWWLHWQSWLGERAGELEKAPTRLGNRAYAAGEASPGTYVHER | 125 ± 35
PhaC2 (PHA polymerase 2), granule-bound (Ectopseudomonas oleovorans) (protein, overexpressed from pGEc404 in PHA-negative P. putida GPp104; assayed on isolated PHA granules (other granule proteins present)) MKDKPAKGTPTLPATSMNVQNAILGLRGRDLISTLRNVSRQSLRHPLHTAHHLLALGGQLGRVILGDTPLQPNPRDPRFSDPTWSQNPFYRRGLQAYLAWQKQTRLWIEESHLDDDDRARAHFLFNLINDALAPSNSLLNPLAVKELFNSGGQSLVRGVAHLLDDLRHNDGLPRQVDERAFEVGGNLAATAGAVVFRNELLELIQYKPMSEKQHARPLLVVPPQINKFYIFDLSSTNSFVQYMLKNGLQVFMVSWRNPDPRHREWGLSSYVQALEEALNACRSISGNRDPNLMGACAGGLTMAALQGHLQAKHQLRRVRSATYLVSLLDSKFESPASLFADEQTIEAAKRRSYQRGVLDGAEVARIFAWMRPNDLIWNYWVNNYLLGKTPPAFDILYWNADSTRLPAALHGDLLDFFKLNPLTHPAGLEVCGTPIDLQKVELDSFTVAGSNDHITPWDAVYRSALLLGGDRRFVLANSGHIQSIINPPGNPKAYYLANPKLSSDPRAWLHDAKRSEGSWWPLWLEWITARSGPLKAPRSELGNATYPPLGPAPGTYVLTR | 37 ± 10
